Laboratory results reported in the supplement of paper PMC9170038.

Tested on: MS2 coat protein
Test: apparent KD of MS2 coat protein; designed switch direction (-1 OFF switch, 1 ON switch): -1; higher = weaker reporter binding
Summary of the method: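 The reported apparent KD is a per-design median over clusters, from curve fits of normalised cluster fluorescence. Protein titrations used SNAP-549-labelled MS2 coat protein, doubled from 0.7 or 1.5 nM to 3 µM, in Tris-HCl pH 7.5 buffer with KCl, MgCl2, BSA, DTT, tRNA and Tween-20, with no input, 200 uM small-molecule ligand, or an oligonucleotide input. The RNA switches were transcribed on Illumina chips by stalled E. coli RNA polymerase.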

[1] = input ligand: microRNA oligo, concentration not stated
[2] = Eterna round: R95, input ligand: microRNA oligo, concentration not stated
[3] = Eterna round: R95, input ligand: FMN 200 uM
[4] = Eterna round: R95, input ligand: none

| Sequence | apparent KD of MS2 coat protein (input ligand: FMN 200 uM) [µM] | apparent KD of MS2 coat protein (input ligand: none) [µM] | apparent KD of MS2 coat protein [2] [µM] | also measured |
| --- | --- | --- | --- | --- |
| GUGCCACAUGAGGAUCACCCAUGUGAGGAUAUGGCCUGUUUGGCGUGUGCUGGCUCUGUCAGAAGGCGCGUGGG [salish99_ex1_r4_037] (Eterna round: R97, puzzle: Exclusion 1) | 0.0391 | 0.0268 | – | – |
| GUGCCGCGAGGAUAUACAGACGGGUCCAAAACGUGUCUCGGACUUGAGGAUCACCCAAGUAGAAGGCUUUUCAG [salish99_ex2_r4_621] (Eterna round: R97, puzzle: Exclusion 2) | 0.0283 | 0.0243 | – | – |
| GUGCCGCGAGGAUAUACAGACGGGUCCAAUACGUGUCUCGGACUUGAGGAUCACCCAAGUAGAAGGCUUUUCAG [LRO-Excl2-11-mod _r4_621 by salish99] (Eterna round: R97, puzzle: Exclusion 2) | 0.0277 | 0.0277 | – | – |
| GUGCUAUAGGAAGGAUAUACUUCAUUGUUUAAACAUGAGGAUCACCCAUGUAACCUUAUGUAUGUGUAGAAGGUCCAUAGCUUA (Eterna round: R96, puzzle: Exclusion NG 2) | 0.0569 | 0.0302 | – | apparent KD of MS2 coat protein [1]: 0.0251 µM |
| GUGCUGGUAGGAUAUACAUGAGGAUCACCCAUGUGGCGUGACUCCUAUGGCAGCGCCGGUAGAAGGAUUAGAAG [Eternabot (L1) Solution 60] (Eterna round: R97, puzzle: Exclusion 3) | 0.188 | 0.261 | – | – |
| GUGGAGUAAGGAUAUACAUGAGGAUCACCCAUGUGAGGGUAUGUGAUGGGAGUAGGUUGUAGAAGGUACGAGGA [JR_Exclu3_Sub068] (puzzle: Exclusion 3) | – | – | 0.16 | – |
| GUGGGCUUUUAGGUUCUUAACAUGAGGAUCACCCAUGUGCUUGUCUUGCUGGCUGGCGGGUCGUCGGUCGGGCUUGU (Eterna round: R97, puzzle: Sensor, turn-off variant 1) | 0.489 | 0.584 | – | – |
| GUGGGUUACAUGAGGAUCACCCAUGUAGAGUGGGAAGAGAGAUAGGAUAUGAUGUGAGAAUUAUAUCAGAAGGAUCGAGACUCG [AK ExNG3-2.4] (Eterna round: R96, puzzle: Exclusion NG 3) | 0.268 | 0.213 | – | apparent KD of MS2 coat protein [1]: 0.136 µM |
| GUGGUACAUGAGGAUCACCCAUGUCAGGAUAUCGCGUGGUUUUUUGCGGCCGCGCGCGCGAGAAGGGACGUCUU (puzzle: Exclusion 1) | – | – | 0.0291 | – |
| GUGGUACAUGAGGAUCACCCAUGUUAGGAUAUCGCGUGAGGUUUUACUUCCACACACACGAGAAGGGACGUCUU (puzzle: Exclusion 1) | – | – | 0.041 | – |
| GUGUAACUACACGGGCUCAACAUGAGGAUCACCCAUGUCAUACACGCAAGCUUUCUGCUUGUCUUAUCUGUCCGUGA [Acela] (puzzle: Sensor v3, turn-off variant 1) | – | – | 0.0125 | apparent KD of MS2 coat protein [3]: 0.0132 µM; apparent KD of MS2 coat protein [4]: 0.0104 µM |
| GUGUACAGAGGAUAUACAUGAGGAUCACCCAUGUGAAUAAGAUAGAAUAAGAUAAAGUGUAGAAGGCUGAGUGU [Excluse me!!! 1 - Jieux - Exclusion 3] (puzzle: Exclusion 3) | – | – | 0.0357 | apparent KD of MS2 coat protein [3]: 0.0288 µM; apparent KD of MS2 coat protein [4]: 0.0384 µM |
| GUGUACAGAGGAUAUACUCAUGGAGUUACGAAAGUAACUUCACAUGAGGAUCACCCAUGUAGAAGGCUGUACAC [Dot plot directed v9] (puzzle: Exclusion 2) | – | – | 0.341 | – |
| GUGUACAGAGGAUAUGCUUGAAUCUAGCGAAGCUAGGUUCGACAUGAGGAUCACCCAUGUAGAAGGCUGUACAC [Dot plot directed A v3] (puzzle: Exclusion 2) | – | – | 0.0134 | – |
| GUGUACGGAGGAUAUAUGUGGGCAGCAUACGCUGCAGCUUCACAUGAGGAUCACCCAUGUAGAAGGCUGUACAC [Mat - Exclusion 2 - Mod of Hyphema - D102] (puzzle: Exclusion 2) | – | – | 0.0214 | – |
| GUGUACGGAGGAUAUGCUGGAAUCUAGCGAAGCUAGGUUCCACAUGAGGAUCACCCAUGUAGAAGGUCGUACAC [Dot plot directed A v8] (puzzle: Exclusion 2) | – | – | 0.0296 | – |
| GUGUACGUAGGAUAUGCUGGAAUCUAGCGAAGCUAGGUUCCACAUGAGGAUCACCCAUGUAGAAGGGCGUACAC [Dot plot directed A v9] (puzzle: Exclusion 2) | – | – | 0.132 | – |
| GUGUAGAUAGGAUAUACGUGAGUCUAGCGAAGCUAGAUUCUACAUGAGGAUCACCCAUGUAGAAGGGUCUACAC [Fiskers Ex 2 - 27] (puzzle: Exclusion 2) | – | – | 0.0151 | – |
| GUGUAGGUAGGAUAUACAUGAGGAUCACCCAUGUGAAUAAGAUAGAAUAAGAUAAAGUGUAGAAGGACUAGUGU [Excluse me!!! 14 - Jieux - Exclusion 3] (puzzle: Exclusion 3) | – | – | 0.0387 | – |
| GUGUAGUCAGGAUAUACAUAGGAAGAGAAGAGAAGAGAAGUACAUGAGGAUCACCCAUGUAGAAGGGACAGUGU [Excluse me!! 6 - Jieux - Exclusion 2] (puzzle: Exclusion 2) | – | – | 0.0217 | – |
| GUGUAGUCAGGAUAUACAUAGGAAGAUAAGAUAAGAUAAGCACAUGAGGAUCACCCAUGUAGAAGGGACAGUGU [Excluse me!! 1 - Jieux - Exclusion 2] (puzzle: Exclusion 2) | – | – | 0.0742 | apparent KD of MS2 coat protein [3]: 0.159 µM; apparent KD of MS2 coat protein [4]: 0.122 µM |
| GUGUAGUCAGGAUAUACAUGAGGAUCACCCAUGUGAAUAAGAUAGAAUAAGAUAAAGUGUAGAAGGGAUAGUGU [Excluse me!!! 22 - Jieux - Exclusion 3] (puzzle: Exclusion 3) | – | – | 0.0307 | – |
| GUGUAGUGAGGAUAUACAUGAGGAUCACCCAUGUGAAUAAGAUAGAAUAAGAUAAAGUGUAGAAGGCAUAGUGU [Excluse me!!! 21 - Jieux - Exclusion 3] (puzzle: Exclusion 3) | – | – | 0.0393 | – |
| GUGUAGUGAGGAUAUCGUUGUUAGGAGGAGAAGGUAGGAGGCGAGAAGGCACAUGAGGAUCACCCAUGUAUGAG [JR_Exclu4_Sub063] (puzzle: Exclusion 4) | – | – | 0.0235 | – |
| GUGUGCAGAGGAUAUACAGAGGAAAAGAAAAGAUAAGUGAUACAUGAGGAUCACCCAUGUAGAAGGCUGAGUGU [Excluse me!! 21 - Jieux - Exclusion 2] (puzzle: Exclusion 2) | – | – | 0.0211 | apparent KD of MS2 coat protein [3]: 0.0328 µM; apparent KD of MS2 coat protein [4]: 0.0227 µM |
| GUGUGCAGAGGAUAUACAGAGGAAGAGAAGAGAAGAGAAGGACAUGAGGAUCACCCAUGUAGAAGGCUGAGUGU [Excluse me!! 19 - Jieux - Exclusion 2] (puzzle: Exclusion 2) | – | – | 0.0302 | apparent KD of MS2 coat protein [3]: 0.0337 µM; apparent KD of MS2 coat protein [4]: 0.0316 µM |
| GUGUGCUGAGGAUAUACAGAGGAAGAUAAUACAAUAUAAGUACAUGAGGAUCACCCAUGUAGAAGGCAGAGUGU [Excluse me!! 11 - Jieux - Exclusion 2] (puzzle: Exclusion 2) | – | – | 0.0234 | – |
| GUGUUACAUGAGGAUCACCCAUGUGAGGAUAUCAUGCUUCGUAGUAAACUACGAAGUGUGAGAAGGCAUAUGAC [Omei Ex1 E4] (Eterna round: R97, puzzle: Exclusion 1) | 0.0507 | 0.0565 | – | – |
| GUGUUGCGAGGAUAUAUAAGGGUAUGUUCUUAGGAUAUGGAACAUGAGGAUCACCCAUGUAGAAGGUGCAUAUC [JR_Ex2_Sub047] (Eterna round: R97, puzzle: Exclusion 2) | 0.0678 | 0.0339 | – | – |
